Experiment [1] deals with DOM1h-131-202. Kind of experiment: monomer/dimer self-association, AUC sedimentation velocity.
Experiment [2] addresses DOM1h-131-202. Put plainly: monomer/dimer self-association, AUC sedimentation equilibrium.
Another experiment deals with DOM1h-131-206. Described as above.

Where a chain is given by its changes, count along the chain named.

B1: DOM1h-131-202 (protein)
VH: EVQLLESGGGLVQPGGSLRLSCAASGFTFAHETMVWVRQAPGKGLEWVSHIPPDGQDPFYADSVKGRFTISRDNSKNTLYLQMNSLRAEDTAVYYCALLPKRGPWFDYWGQGTLVTVSS
B1: the Kd (usually the equilibrium constant for the complex coming apart) with DOM1h-131-202 [1] came to 1000 nM; in the experiment with DOM1h-131-202 [2], 1300 nM.

B2: DOM1h-131-206 (protein)
VH: B1 VH with Y95H
In turn, B2 had a Kd with DOM1h-131-206 of 360000 nM.

The record behind these values is patent US20100247515A1.
